Residue numbers refer to the chain shown, from its start. One block for each binder: values may come before it.
Assays:
[1] = biological target: T1, human GPRC5C, on 293T cells (human, UniProt Q9NQ84 24-441); experiment: FACS on 293T-GPRC5C cells, antibody at 2 µg/mL; control tubes 8.86 and 8.73
T1 construct: whole, on cells; also called 293T-GPRC5C
Experimental: (§1) 100 μl of FACS buffer was then added to each FACS tube for resuspension. 5 μl of PE-labeled, anti-murine Fc tagged secondary antibody (Biolegend, catalog number 409304) was added according to instructions, and incubated at 4° C. in the dark for 30 mins. Then 1 ml of FACS buffer was added, and centrifuged at 1200 rpm at room temperature for 5 mins. The supernatant was discarded followed by washing three times.
(§2) The experimental process was as described in Example 4, cells expressing other members of G protein-coupled receptor class C group 5 as follows were used: 293T cells expressing human GPRC5A, 293T-GPRC5A (Kyinno, catalog number KC-1888), 293T cells expressing human GPRC5B, 293T-GPRC5B (Kyinno, catalog number KC-1854), and 293T cells expressing human GPRC5C, 293T-GPRC5C (Kyinno, catalog number KC-1889). […] Control tube 1 (no antibody and secondary antibody, adding only cell suspension) and Control tube 2 (no antibody, adding only cell suspension and secondary antibody) were included.

[2] = biological target: T2, human GPRC5D (G protein-coupled receptor class C group 5 member D), on cells (human, UniProt Q9NZD1 1-345); experiment: cell-based or functional assay
[3] = biological target: T2, human GPRC5D (G protein-coupled …); experiment: FACS on 293T cells expressing human GPRC5D
Experimental: as §1
Control tube 1 (no antibody and secondary antibody, adding only the cell suspension) and Control tube 2 (no antibody, adding only the cell suspension and the secondary antibody) were included.

[4] = biological target: T3, human GPRC5D protein (KACTUS, catalog number GPR-HM05P) (human, UniProt Q9NZD1 1-345, limits assumed); experiment: Fortebio BLI, antibody captured on AHC chip, human GPRC5D protein as analyte
T3 construct: Bought reagent used as analyte in the Fortebio assay; the construct is not described
Experimental: Antibodies to be tested were prepared into solutions at concentration of 10 μg/mL using PBS buffer, and the antibodies were captured using the AHC chip according to Fortebio's instructions. The pre-prepared human GPRC5D proteins (KACTUS, catalog number GPR-HM05P) (protein starting at a highest concentration of 200 nM, 2-fold diluted, 6 gradients) were flowed through the chip, with the following specific conditions: flow rate 30 μl/min; antigen-antibody binding time 200 seconds, dissociation time 500 seconds. The measured results were fitted using the supporting software designed for the device to analyze the affinity between an antibody and an antigen.

[5] = biological target: T4, human GPRC5B, on 293T cells (human, UniProt Q9NZH0 29-403); experiment: FACS on 293T-GPRC5B cells, antibody at 2 µg/mL; control tubes 8.55 and 8.26
T4 construct: whole, on cells; also called 293T-GPRC5B
Experimental: as §1, §2

[6] = biological target: T5, monkey (cyno) GPRC5D, on 293T cells (monkey (cyno)); experiment: FACS on 293T cells expressing monkey (cyno) GPRC5D
T5 construct: whole, on cells; also called monkey GPRC5D
Experimental: as §1
(§3) The experimental process was as described in Example 4. […] Control tube 1 (no antibody and secondary antibody, adding only cell suspension) and Control tube 2 (no antibody, adding only cell suspension and secondary antibody) were included.

[7] = biological target: T2, human GPRC5D (G protein-coupled …); experiment: FACS on MOLP8 multiple myeloma cells
Experimental: as §1
as §3, with “4, and the cells used were replaced with multiple myeloma cells MM.1R (Kyinno, catalog number KC-0619) and MOLP8 (Kyinno, catalog number KC-0622).” for “4.”

[8] = biological target: T2, human GPRC5D (G protein-coupled …); experiment: FACS on MM.1R multiple myeloma cells
Experimental: as §1
as §3, with “4, and the cells used were replaced with multiple myeloma cells MM.1R (Kyinno, catalog number KC-0619) and MOLP8 (Kyinno, catalog number KC-0622).” for “4.”

[9] = biological target: T6, human GPRC5A, on 293T cells (human, UniProt Q8NFJ5 1-357); experiment: FACS on 293T-GPRC5A cells, antibody at 2 µg/mL; control tubes 8.30 and 8.41
T6 construct: whole, on cells; also called 293T-GPRC5A
Experimental: as §1, §2

[10] = biological target: T5, monkey (cyno) GPRC5D, on 293T cells; experiment: FACS, hybridoma supernatant on 293T cells expressing monkey GPRC5D
Excerpt: According to the method described in Example 4, the binding between the culture supernatant of the hybridoma cells and monkey GPRC5D was detected, except that the human GPRC5D-expressing cells were replaced with 293T cells expressing monkey GPRC5D (Kyinno, catalog number KC-1586).

[11] = biological target: T2, human GPRC5D (G protein-coupled …); experiment: FACS, hybridoma supernatant on 293T cells expressing human GPRC5D
Experimental: 293T cells expressing human GPRC5D as described above was prepared into a suspension at concentration of 1×10⁵ cells/ml in PBS containing 2% FBS.
1 ml of FACS buffer was added to each FACS tube, centrifuged at 1200 rpm for 5 mins. The supernatant was discarded followed by washing three times. At the same time, control tube 1 (no supernatant of the culture and the secondary antibody mentioned below, adding only cell suspension) and control tube 2 (no supernatant of the culture, adding only cell suspension and the secondary antibody mentioned below) were included.
as §1

[12] = biological target: T2, human GPRC5D (G protein-coupled …); experiment: FACS, hybridoma supernatant on OPM2 cells
[13] = biological target: T7, Nalm6 cells (NALM6, Kyinno, catalog number KC-0626); experiment: FACS, hybridoma supernatant on Nalm6 cells
T7 construct: Kept apart from human GPRC5D so that the low MFI values on this line are not laid to the GPRC5D pair

[14] = biological target: T2, human GPRC5D (G protein-coupled …); experiment: FACS, hybridoma supernatant on MM1R cells
[15] = biological target: T2, human GPRC5D (G protein-coupled …); experiment: cell ELISA, hybridoma supernatant on fixed BXPC-3 cells expressing human GPRC5D
Experimental: BXPC-3 cells expressing human GPRC5D (Kyinno, catalog number KC-1717) were prepared into a suspension at concentration of 1×10⁵ cells/ml in PBS containing 2% FBS. The suspension was added to a 96-well plate at 100 μl/well and cultured overnight at 37° C. The wells were cleared of their contents and washed three times with washing solution. 80 μl of 4% tissue fixative (Beyotime, catalog number P0099) was added to each well followed by fixing at room temperature for 15 min, washing twice with PBS and drying. 250 μl of blocking solution containing 2% BSA was added to each well followed by incubation at 37° C. for 1 hr and washing three times with PBS. 50-100 μl of the supernatant of the hybridoma cell culture was added to each well. A positive control (adding serum from fusion mice), a negative control (adding serum from normal mice) and a blank control (adding culture medium) were included. The wells were incubated at 37° C. for 1-2 hrs, washed, and dried. Then, the enzyme-labeled secondary antibody, HRP-labeled goat anti-mouse IgG (SIGMA, catalog number A9044-2 ml) was added at dilution of 1:10000 and 50-100 μl/well. The wells were incubated at 37° C. for 1-2 hrs, washed, and dried. 50-100 μl of freshly prepared developing solution TMB was added to each well and incubated at 37° C. for 10-30 mins.
2 mol/L H₂SO₄ was added to terminate the reaction, and the OD value was read on an enzyme-linked immunosorbent reader.

[16] = biological target: T2, human GPRC5D (G protein-coupled …); experiment: FACS, hybridoma supernatant on NCI-H929 cells
Experimental: as §1

[17] = biological target: human CD3 protein (KACTUS) (human); experiment: Fortebio BLI, antibody captured on AHC chip, human CD3 protein as analyte
human CD3 protein (KACTUS) (human), sequence (chain, as listed by the source): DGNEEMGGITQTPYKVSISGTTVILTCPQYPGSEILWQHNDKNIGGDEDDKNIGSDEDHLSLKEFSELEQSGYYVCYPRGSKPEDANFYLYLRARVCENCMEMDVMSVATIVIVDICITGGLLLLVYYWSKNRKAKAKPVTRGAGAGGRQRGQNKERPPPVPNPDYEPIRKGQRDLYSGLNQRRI

T1 sequence (Q9NQ84 24-441): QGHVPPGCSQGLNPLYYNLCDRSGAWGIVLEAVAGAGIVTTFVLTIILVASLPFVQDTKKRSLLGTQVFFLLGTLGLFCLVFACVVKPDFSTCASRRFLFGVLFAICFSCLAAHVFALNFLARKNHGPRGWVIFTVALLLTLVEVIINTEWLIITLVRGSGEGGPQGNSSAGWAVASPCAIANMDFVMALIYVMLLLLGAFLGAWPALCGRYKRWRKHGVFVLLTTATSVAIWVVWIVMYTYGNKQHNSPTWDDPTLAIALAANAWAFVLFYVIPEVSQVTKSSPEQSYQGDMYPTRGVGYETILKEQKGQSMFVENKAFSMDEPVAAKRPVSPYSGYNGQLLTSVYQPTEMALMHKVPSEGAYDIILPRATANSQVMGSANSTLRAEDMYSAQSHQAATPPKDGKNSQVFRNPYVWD
T2 sequence (Q9NZD1 whole entry): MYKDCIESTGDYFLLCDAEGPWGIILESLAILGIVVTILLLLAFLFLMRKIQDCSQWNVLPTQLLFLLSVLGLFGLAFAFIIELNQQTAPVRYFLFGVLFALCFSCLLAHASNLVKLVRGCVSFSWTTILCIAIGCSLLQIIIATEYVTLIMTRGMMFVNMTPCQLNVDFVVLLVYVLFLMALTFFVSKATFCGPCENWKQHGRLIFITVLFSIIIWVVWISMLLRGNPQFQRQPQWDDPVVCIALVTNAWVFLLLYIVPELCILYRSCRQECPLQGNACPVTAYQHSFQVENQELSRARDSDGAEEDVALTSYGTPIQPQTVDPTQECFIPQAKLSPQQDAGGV
T3 sequence (Q9NZD1 whole entry): as above
T6 sequence (Q8NFJ5 whole entry): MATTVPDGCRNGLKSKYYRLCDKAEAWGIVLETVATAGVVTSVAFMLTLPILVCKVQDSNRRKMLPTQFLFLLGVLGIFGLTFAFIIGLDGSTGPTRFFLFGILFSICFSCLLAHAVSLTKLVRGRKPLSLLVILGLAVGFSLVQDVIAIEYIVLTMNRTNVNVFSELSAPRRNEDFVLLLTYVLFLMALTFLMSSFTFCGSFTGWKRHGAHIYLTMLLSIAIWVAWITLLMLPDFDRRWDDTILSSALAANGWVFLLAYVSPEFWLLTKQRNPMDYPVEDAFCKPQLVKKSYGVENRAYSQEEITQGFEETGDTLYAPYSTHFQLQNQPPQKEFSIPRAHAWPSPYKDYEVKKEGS
T4 sequence (Q9NZH0 29-403): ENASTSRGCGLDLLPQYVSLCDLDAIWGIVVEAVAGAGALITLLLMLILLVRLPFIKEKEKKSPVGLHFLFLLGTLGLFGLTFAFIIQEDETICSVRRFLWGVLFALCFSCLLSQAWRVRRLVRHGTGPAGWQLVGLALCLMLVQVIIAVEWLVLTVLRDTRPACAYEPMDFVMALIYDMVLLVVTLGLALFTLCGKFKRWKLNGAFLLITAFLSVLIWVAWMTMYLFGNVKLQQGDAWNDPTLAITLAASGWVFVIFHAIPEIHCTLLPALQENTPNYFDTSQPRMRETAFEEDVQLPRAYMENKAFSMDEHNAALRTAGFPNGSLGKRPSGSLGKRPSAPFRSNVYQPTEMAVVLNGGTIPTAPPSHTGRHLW

B1: humanized antibody 26D1 (hz) (antibody, V domains shown)
VH: QVQLVQSGAEVKKPGASVKVSCKASGYTFTSYTIQWIKQAPGQGLEWIGYIIPSSGYTNYNQKFKDKATLTADKSSNTAYMELSSLTSEDTAVYYCANNYGNWGFTYWGQGTTVTVSS
VL: DIQMTQSPSTLSASVGDRVTITCKASQNVGSAVTWYQQKPGKAPRLLIYSASNRYTGVPDRFSGSGSGTEFTLTISSLQPDDFATYFCQQYSNYPLTFGQGTRLEIKR
- FACS result [1]: 8.89
- ADCC reporter (Jurkat-NFAT-luc-CD16-V158 luciferase), EC50 [2]: 0.0452 µg/mL
- ADCC reporter (Jurkat-NFAT-luc-CD16-V158 luciferase), Top [2]: 18.4
- EC50 [3]: 0.228 µg/mL
- MFI.Max [3]: 9560 MFI
- Kd [4]: 1.7 nM
- koff [4]: 3.15e-05 s⁻¹
- kon [4]: 18500 M⁻¹ s⁻¹
- FACS result [5]: 8.59
- MFI.Max [6]: 12.3 MFI
- EC50 [7]: 0.964 µg/mL
- MFI.Max [7]: 78 MFI
- EC50 [8]: 0.571 µg/mL
- MFI.Max [8]: 185 MFI
- FACS result [9]: 8.46

B3: humanized antibody 24F5 (hz) (antibody, V domains shown)
VH: QVQLVQSGAEVKKPGASVKVSCKASGYTFPYYVMHWVRQAPGQGLEWIGYINPYNDGTKYNEKFKGRATLTSDKSTSTAYMELSSLRSEDTAVYYCARGGVRRYFDYWGQGTTVTVSS
VL: DIQMTQSPSTLSASVGDRVTITCRASQDIGSNLNWLQQKPGGTIKRLIYATSSLDSGVPSRFSGSRSGSEYTLTISSLQPDDFATYYCLQYATFPYTFGQGTRLEIKR
- FACS result [1]: 8.97
- ADCC reporter (Jurkat-NFAT-luc-CD16-V158 luciferase), Top [2]: 25.4
- EC50 [3]: 0.7 µg/mL
- MFI.Max [3]: 8910 MFI
- Kd [4]: 1.36 nM
- koff [4]: 5.42e-05 s⁻¹
- kon [4]: 39900 M⁻¹ s⁻¹
- FACS result [5]: 8.58
- EC50 [6]: 0.167 µg/mL
- MFI.Max [6]: 3560 MFI
- EC50 [7]: 0.581 µg/mL
- MFI.Max [7]: 133 MFI
- EC50 [8]: 0.0682 µg/mL
- MFI.Max [8]: 177 MFI
- FACS result [9]: 8.45

B6: humanized anti-CD3 antibody SP34V1 (hz) (antibody, V domains shown)
VH: QVQLVESGGGLVKPGGSLRLSCAASGFTFSTYAMNWVRQAPGKGLEWVGRIRSKYNNYATYYADSVKDRFTISRDDAKNSLYLQMNSLRAEDTAVYYCARHGNFGNSYVSYFAYWGQGTTVTVSS
VL: DIQMTQSPSSLSASVGDRVTITCRSSTGAVTTSNYANWVQQKPGKAPKALIGGTNKRAPGVPSRFSGSLSGDDATLTISSLQPEDFATYYCALWYSNLWVFGQGTRLEIKR
- Kd [17]: 18 nM
- koff [17]: 0.00795 s⁻¹
- kon [17]: 442000 M⁻¹ s⁻¹

Continued, values first:

- FACS result [1]: 8.48
- ADCC reporter (Jurkat-NFAT-luc-CD16-V158 luciferase), Top [2]: 24.5
- EC50 [3]: 0.283 µg/mL
- MFI.Max [3]: 8940 MFI
- Kd [4]: < 0.001 nM
- koff [4]: < 1e-07 s⁻¹
- kon [4]: 22600 M⁻¹ s⁻¹
- FACS result [5]: 8.54
- EC50 [6]: 0.378 µg/mL
- MFI.Max [6]: 4260 MFI
- EC50 [7]: 0.313 µg/mL
- MFI.Max [7]: 128 MFI
- EC50 [8]: 0.09 µg/mL
- MFI.Max [8]: 150 MFI
- FACS result [9]: 8.34
B2: humanized antibody 9D7 (hz) (antibody, V domains shown)
VH: QVQLQESGPGLVKPSETLSLTCTVSGYSITSDYAWNWIRQPPGKGLEWMGYISYSGSATYSPSLKSRITISRDTSKNQFSLKLSSVTAADTAVYYCARGGIAGRGRWGAMDYWGQGTTVTVSS
VL: DIQMTQSPSSLSASVGDRVTITCKASQNVGTNVAWYQQKPGQSPKALIYSASYRDSGVPDRFSGSGSGTDFTLTISSLQPEDFATYYCQQYKSYPLTFGQGTRLEIKR

- FACS result [1]: 8.78
- ADCC reporter (Jurkat-NFAT-luc-CD16-V158 luciferase), Top [2]: 32.8
- EC50 [3]: 0.351 µg/mL
- MFI.Max [3]: 14800 MFI
- Kd [4]: 0.458 nM
- koff [4]: 2.08e-05 s⁻¹
- kon [4]: 45500 M⁻¹ s⁻¹
- FACS result [5]: 8.62
- EC50 [6]: 0.192 µg/mL
- MFI.Max [6]: 6250 MFI
- EC50 [7]: 0.256 µg/mL
- MFI.Max [7]: 144 MFI
- EC50 [8]: 0.146 µg/mL
- MFI.Max [8]: 246 MFI
- FACS result [9]: 8.54
B4: humanized antibody 6E97 (hz) (antibody, V domains shown)
VH: B3 VH with M34I, D56A
VL: B3 VL with M4L, Y49S

- EC50 [10]: 0.268 µg/mL
- MFI.Max [10]: 6260 MFI
- EC50 [11]: 0.117 µg/mL
- MFI.Max [11]: 9520 MFI
- EC50 [12]: 5.67 µg/mL
- MFI.Max [12]: 1190 MFI
- MFI.Max [13]: 106 MFI
- MFI.Max [14]: 991 MFI
- OD value [15]: 1.54 OD
- MFI.Max [16]: 1100 MFI
B5: murine antibody 24F5 (A3 antibody) (antibody, V domains shown)
VH: QVQLKESGPELVKPGASVKISCKASGYTFPYYVMHWVKQKPGQGLEWIGYINPYNDGTKYNEKFKGKAALTSDKSSSTAYMDLSSLTSEDSAVYYCARGGVRRYFDYWGQGTTLTVSS
VL: DIQMTQTPSSLSASLGERVSLTCRASQDIGSNLNWLQQEPDGTIKRLIYATSSLDSGVPKRFSGSRSGSDYSLTISSLESEDFVDYYCLQYATFPYTFGGGTKLEIK
notes: Tested as hybridoma cell culture supernatant; also called murine anti-24F5

Source: US20260085114A1 (KYINNO BIOTECHNOLOGY, published 2026)
